According to patent US20260265354A1 (JIANGSU MABWELL HEALTH PHARMACEUTICAL R AND D, published 2026):
Where a chain is given by its changes, count along the chain named.

B1: Antibody R012 (antibody, V domains shown)
VH: SKSVEESGGRLVTPGTPLTLTCTVSGFSLSTYAMSWVRQAPGKGLEYIGIISGRGTTYYASWLKGRFTISKTSTTVDLKITSPTTEDTATYFCARDAGISDVYTGYFNLWGQGTLVTVSS
VL: QPVLAQLPSASAALGASAKLTCTLSSAHRTYTIAWYQQQQGEAPRYLMMLKSDGSYTKGTGVPDRFSGSSSGADRYLIISSVQAADEADYYCGADDSGGYVFGGGTQLTVTG
notes: Rabbit monoclonal antibody from phage display; also called Nectin-4 rabbit monoclonal antibody R012; rabbit antibody R012
B2: Antibody R036 (antibody, V domains shown)
VH: SQSVEESGGRLVTPGTPLTLTCTVSGFSLSSYAMSWVRQAPGKGLEYIGIIGGRGTTYYAIWAKGRFTISKTSTTVDLKITSPTTEDTATYFCARDAGTTYVGTTYVATGYFNLWGQGTLVTVSS
VL: B1 VL with A5T, L7P, R29K, M49I, K58R, A85D
notes: Rabbit monoclonal antibody from phage display; also called Nectin-4 rabbit monoclonal antibody R036; rabbit antibody R036
B3: Antibody MM11 (antibody, mouse IgG1, kappa, V domains shown)
VH: DVQLQESGPGLVKPSQSLSLTCSVTGYSITSNFYWNWIRQFPGNRLEWMGYISYDGSNNYNPSLKNRISISRDTSKNQFFLKLNSVTTEDTATYYCVRADYWGQGTLVTVSA
VL: DTVMTQTPLSLPVSLGDQASISCRSSQSLESSDGHAYLNWYLQKPGQSPQLLIYRVSNRFSGVLHRFSGSGSGTDFTLKISRVEAEDLGVYFCLQFTHVPFTFGSGTKLEIKR
notes: Mouse monoclonal antibody from hybridoma; also called Nectin-4 mouse monoclonal antibody MM11; mouse antibody MM11

The binders below were run against T1, Nectin-1 (UniProt Q15223 31-334, limits assumed) (assay: ELISA, coated antigen).
T1 construct: Bought recombinant protein; also called CD111; PVRL-1
T1 sequence (looked up): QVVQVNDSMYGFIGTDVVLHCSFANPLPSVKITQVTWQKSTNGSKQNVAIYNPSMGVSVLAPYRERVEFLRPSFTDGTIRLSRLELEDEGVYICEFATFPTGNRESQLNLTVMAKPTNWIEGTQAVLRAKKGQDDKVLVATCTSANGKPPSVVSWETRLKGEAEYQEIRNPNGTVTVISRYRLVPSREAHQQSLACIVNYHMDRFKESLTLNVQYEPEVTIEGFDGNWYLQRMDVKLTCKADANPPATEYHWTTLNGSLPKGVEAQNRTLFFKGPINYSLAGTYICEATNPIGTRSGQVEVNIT
B1: no binding (tested: 10000 ng/ml). B2: no binding (tested: 10000 ng/ml). B3: no binding (tested: 10000 ng/ml).

Each binder was assayed against T2, Nectin-like-1 (UniProt Q8N126 25-330, limits assumed) (assay: ELISA, coated antigen).
T2 construct: Bought recombinant protein; also called CADM3; IgSF4B
T2 sequence (looked up): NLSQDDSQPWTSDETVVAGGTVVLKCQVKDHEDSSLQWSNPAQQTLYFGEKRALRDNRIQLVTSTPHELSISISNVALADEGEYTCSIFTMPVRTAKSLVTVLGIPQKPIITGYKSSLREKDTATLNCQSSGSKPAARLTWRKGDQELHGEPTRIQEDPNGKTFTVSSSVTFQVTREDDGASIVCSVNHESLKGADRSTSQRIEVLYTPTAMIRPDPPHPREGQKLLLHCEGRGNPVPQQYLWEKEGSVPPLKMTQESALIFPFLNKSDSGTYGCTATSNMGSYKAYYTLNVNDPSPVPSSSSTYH
B1: no binding (tested: 10000 ng/ml). B2: no binding (tested: 10000 ng/ml). B3: no binding (tested: 10000 ng/ml).

Each binder was assayed against T3, Nectin-like-4 (UniProt Q8NFZ8 21-324, limits assumed) (assay: ELISA, coated antigen).
T3 construct: Bought recombinant protein; also called CADM4; IgSF4C
T3 sequence (looked up): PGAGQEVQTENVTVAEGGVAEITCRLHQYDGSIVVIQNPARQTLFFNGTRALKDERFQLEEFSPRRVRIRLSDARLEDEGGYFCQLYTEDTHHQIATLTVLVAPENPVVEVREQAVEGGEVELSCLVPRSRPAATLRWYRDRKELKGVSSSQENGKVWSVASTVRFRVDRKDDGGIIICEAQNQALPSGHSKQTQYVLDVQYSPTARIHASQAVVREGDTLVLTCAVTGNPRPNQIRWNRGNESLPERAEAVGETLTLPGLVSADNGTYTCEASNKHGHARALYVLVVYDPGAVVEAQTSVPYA
B1: no binding (tested: 10000 ng/ml). B2: no binding (tested: 10000 ng/ml). B3: no binding (tested: 10000 ng/ml).

What follows are binders tested against T4, Nectin-2 (UniProt Q92692 32-360, limits assumed) (assay: ELISA, coated antigen).
T4 construct: Bought recombinant protein; also called CD112; PVRL-2
T4 sequence (looked up): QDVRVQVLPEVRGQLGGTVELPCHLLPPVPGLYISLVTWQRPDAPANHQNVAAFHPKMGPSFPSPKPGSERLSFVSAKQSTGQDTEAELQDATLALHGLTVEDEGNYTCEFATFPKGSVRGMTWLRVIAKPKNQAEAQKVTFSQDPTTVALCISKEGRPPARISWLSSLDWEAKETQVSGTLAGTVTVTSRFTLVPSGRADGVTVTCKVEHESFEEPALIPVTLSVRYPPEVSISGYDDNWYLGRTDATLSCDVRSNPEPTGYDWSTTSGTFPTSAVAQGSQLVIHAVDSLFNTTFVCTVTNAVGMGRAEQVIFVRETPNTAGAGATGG
B1: no binding (tested: 10000 ng/ml). B2: no binding (tested: 10000 ng/ml). B3: no binding (tested: 10000 ng/ml).

These binders were tested against T5, Nectin-like-3 (UniProt Q8N3J6 25-367, limits assumed) (assay: ELISA, coated antigen).
T5 construct: Bought recombinant protein; also called CADM2; IgSF4D
T5 sequence (looked up): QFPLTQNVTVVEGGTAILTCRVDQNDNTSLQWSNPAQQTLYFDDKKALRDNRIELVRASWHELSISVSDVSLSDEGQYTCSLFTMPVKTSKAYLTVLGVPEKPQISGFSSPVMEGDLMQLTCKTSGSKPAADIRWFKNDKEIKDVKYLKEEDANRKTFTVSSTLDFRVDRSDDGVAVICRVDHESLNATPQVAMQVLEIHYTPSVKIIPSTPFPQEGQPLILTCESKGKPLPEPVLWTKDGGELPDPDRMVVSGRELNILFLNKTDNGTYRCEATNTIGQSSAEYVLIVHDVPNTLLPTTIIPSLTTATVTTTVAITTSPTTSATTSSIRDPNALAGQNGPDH
B1: no binding (tested: 10000 ng/ml). B2: no binding (tested: 10000 ng/ml). B3: no binding (tested: 10000 ng/ml).

Each binder was assayed against T6, Nectin-like-5 (UniProt P15151 21-343) (assay: ELISA, coated antigen).
T6 construct: Bought recombinant protein; also called CD155; PVR
T6 sequence (looked up): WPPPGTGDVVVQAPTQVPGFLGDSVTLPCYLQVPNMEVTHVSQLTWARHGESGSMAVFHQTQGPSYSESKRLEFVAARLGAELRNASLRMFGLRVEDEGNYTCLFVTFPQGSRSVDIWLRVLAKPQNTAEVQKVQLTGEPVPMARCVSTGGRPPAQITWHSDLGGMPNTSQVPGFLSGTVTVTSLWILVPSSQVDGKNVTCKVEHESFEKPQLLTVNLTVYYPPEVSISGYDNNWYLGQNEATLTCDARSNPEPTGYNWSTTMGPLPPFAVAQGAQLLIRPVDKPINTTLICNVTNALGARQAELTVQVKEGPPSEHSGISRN
B1: no binding (tested: 10000 ng/ml). B2: no binding (tested: 10000 ng/ml). B3: no binding (tested: 10000 ng/ml).

The binders below were run against T7, Nectin-like-2 (UniProt Q9BY67 45-374, limits assumed) (assay: ELISA, coated antigen).
T7 construct: Bought recombinant protein; also called CADM1; IgSF4
T7 sequence (looked up): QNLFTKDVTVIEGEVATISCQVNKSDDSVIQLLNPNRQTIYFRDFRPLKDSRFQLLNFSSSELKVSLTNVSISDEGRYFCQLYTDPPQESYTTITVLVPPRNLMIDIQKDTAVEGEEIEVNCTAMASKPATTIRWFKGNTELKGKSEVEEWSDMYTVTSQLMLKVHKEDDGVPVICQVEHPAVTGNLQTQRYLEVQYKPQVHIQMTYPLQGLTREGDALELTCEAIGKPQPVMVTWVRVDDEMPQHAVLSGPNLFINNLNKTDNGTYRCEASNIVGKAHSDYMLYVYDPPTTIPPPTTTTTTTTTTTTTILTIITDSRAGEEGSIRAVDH
B1: no binding (tested: 10000 ng/ml). B2: no binding (tested: 10000 ng/ml). B3: no binding (tested: 10000 ng/ml).

The binders below were run against T8, Nectin-3 (UniProt Q9NQS3 58-404, limits assumed) (assay: ELISA, coated antigen).
T8 construct: Bought recombinant protein; also called CD113; PVRL-3
T8 sequence (Q9NQS3 58-404 limits assumed): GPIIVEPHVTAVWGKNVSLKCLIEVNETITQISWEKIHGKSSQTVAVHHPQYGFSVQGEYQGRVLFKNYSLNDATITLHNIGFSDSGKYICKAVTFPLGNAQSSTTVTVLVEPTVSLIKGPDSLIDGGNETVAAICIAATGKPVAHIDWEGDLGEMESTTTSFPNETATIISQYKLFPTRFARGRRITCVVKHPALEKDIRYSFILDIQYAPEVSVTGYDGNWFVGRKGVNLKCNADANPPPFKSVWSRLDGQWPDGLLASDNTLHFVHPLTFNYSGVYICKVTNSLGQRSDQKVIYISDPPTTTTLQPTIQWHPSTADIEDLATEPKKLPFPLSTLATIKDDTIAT
B1: no binding (tested: 10000 ng/ml). B2: no binding (tested: 10000 ng/ml). B3: no binding (tested: 10000 ng/ml).
